The results in this text go back to IntAct's records for PubMed 31515488.

To fix the notation:
B1: Protein FAM9B (Homo sapiens), Q8IZU0 (parent)
chain: MAAWGKKHAGKDPVRDECEERNRFTETREEDVTDEHGEREPFAETDEHTGANTKKPEDTAEDLTAKRKRMKMDKTCSKTKNKSKHALRKKQLKRQKRDYIHSLKLLNVLEEYITDEQKEEEEEEGEEEELIRIFQEQQKKWQQYRSVRRERLKEMKLLRDQFVKALEDFEDLCDRVFSDEDSELDN
partner: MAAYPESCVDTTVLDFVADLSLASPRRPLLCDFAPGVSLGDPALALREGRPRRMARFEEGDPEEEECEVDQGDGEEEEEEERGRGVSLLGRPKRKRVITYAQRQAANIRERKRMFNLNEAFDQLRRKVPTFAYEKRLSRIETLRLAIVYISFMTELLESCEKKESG
B2: Peroxisomal bifunctional enzyme (Homo sapiens), Q08426 (parent)
chain: MAEYTRLHNALALIRLRNPPVNAISTTLLRDIKEGLQKAVIDHTIKAIVICGAEGKFSAGADIRGFSAPRTFGLTLGHVVDEIQRNEKPVVAAIQGMAFGGGLELALGCHYRIAHAEAQVGLPEVTLGLLPGARGTQLLPRLTGVPAALDLITSGRRILADEALKLGILDKVVNSDPVEEAIRFAQRVSDQPLESRRLCNKPIQSLPNMDSIFSEALLKMRRQHPGCLAQEACVRAVQAAVQYPYEVGIKKEEELFLYLLQSGQARALQYAFFAERKANKWSTPSGASWKTASARPVSSVGVVGLGTMGRGIVISFARARIPVIAVDSDKNQLATANKMITSVLEKEASKMQQSGHPWSGPKPRLTSSVKELGGVDLVIEAVFEEMSLKKQVFAELSAVCKPEAFLCTNTSALDVDEIASSTDRPHLVIGTHFFSPAHVMKLLEVIPSQYSSPTTIATVMNLSKKIKKIGVVVGNCFGFVGNRMLNPYYNQAYFLLEEGSKPEEVDQVLEEFGFKMGPFRVSDLAGLDVGWKSRKGQGLTGPTLLPGTPARKRGNRRYCPIPDVLCELGRFGQKTGKGWYQYDKPLGRIHKPDPWLSKFLSRYRKTHHIEPRTISQDEILERCLYSLINEAFRILGEGIAASPEHIDVVYLHGYGWPRHKGGPMFYASTVGLPTVLEKLQKYYRQNPDIPQLEPSDYLKKLASQGNPPLKEWQSLAGSPSSKL
B3: Syntenin-2 (Homo sapiens), Q9H190 (parent)
chain: MSSLYPSLEDLKVDQAIQAQVRASPKMPALPVQATAISPPPVLYPNLAELENYMGLSLSSQEVQESLLQIPEGDSTAVSGPGPGQMVAPVTGYSLGVRRAEIKPGVREIHLCKDERGKTGLRLRKVDQGLFVQLVQANTPASLVGLRFGDQLLQIDGRDCAGWSSHKAHQVVKKASGDKIVVVVRDRPFQRTVTMHKDSMGHVGFVIKKGKIVSLVKGSSAARNGLLTNHYVCEVDGQNVIGLKDKKIMEILATAGNVVTLTIIPSVIYEHMVKKLPPVLLHHTMDHSIPDA
partner: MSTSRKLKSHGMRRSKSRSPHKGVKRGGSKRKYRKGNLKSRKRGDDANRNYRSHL
B4: Protein BANP (Homo sapiens), Q8N9N5-2 (parent)
chain: MMSEHDLADVVQIAVEDLSPDHPVVLENHVVTDEDEPALKRQRLEINCQDPSIKSFLYSINQTICLRLDSIEAKLQALEATCKSLEEKLDLVTNKQHSPIQVPMVAGSPLGATQTCNKVRCAVPGRRQNTIVVKVPGQEDSHHEDGESGSEASDSVSSCGQAGSQSIGSNVTLITLNSEEDYPNGTWLGDENNPEMRVRCAIIPSDMLHISTNCRTAEKMALTLLDYLFHREVQAVSNLSGQGKHGKKQLDPLTIYGIRCHLFYKFGITESDWYRIKQSIDSKCRTAWRRKQRGQSLAVKSFSRRTPNSSSYCPSEPMMSTPPPASELPQPQPQPQALHYALANAQQVQIHQIGEDGQVQVIPQGHLHIAQVPQGEQVQITQDSEGNLQIHHVGQDGQVLQGAQLIAVASSDPAAAGVDGSPLQGSDIQVQYVQLAPVSDHTAGAQTAEALQPTLQPEMQLEHGAIQIQ
B5: Notch homolog 2 N-terminal-like protein A (Homo sapiens), Q7Z3S9 (parent)
chain: MCVTYHNGTGYCKCPEGFLGEYCQHRDPCEKNRCQNGGTCVAQAMLGKATCRCASGFTGEDCQYSTSHPCFVSRPCLNGGTCHMLSRDTYECTCQVGFTGKECQWTDACLSHPCANGSTCTTVANQFSCKCLTGFTGQKCETDVNECDIPGHCQHGGTCLNLPGSYQCQCLQGFTGQYCDSLYVPCAPSPCVNGGTCRQTGDFTFECNCLPETVRRGTELWERDREVWNGKEHDEN
partner: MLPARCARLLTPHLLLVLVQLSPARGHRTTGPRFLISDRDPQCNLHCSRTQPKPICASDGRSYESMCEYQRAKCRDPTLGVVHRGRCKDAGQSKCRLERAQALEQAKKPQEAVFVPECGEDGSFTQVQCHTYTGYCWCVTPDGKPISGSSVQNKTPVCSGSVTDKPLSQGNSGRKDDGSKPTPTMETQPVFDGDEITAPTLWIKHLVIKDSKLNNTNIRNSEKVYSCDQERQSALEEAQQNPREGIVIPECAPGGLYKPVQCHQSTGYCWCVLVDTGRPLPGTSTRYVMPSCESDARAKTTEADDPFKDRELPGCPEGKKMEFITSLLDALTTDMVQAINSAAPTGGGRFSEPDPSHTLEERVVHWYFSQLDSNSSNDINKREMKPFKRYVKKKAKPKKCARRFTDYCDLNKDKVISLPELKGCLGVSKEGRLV
B6: Centrosomal protein of 55 kDa (Homo sapiens), Q53EZ4 (parent)
chain: MSSRSTKDLIKSKWGSKPSNSKSETTLEKLKGEIAHLKTSVDEITSGKGKLTDKERHRLLEKIRVLEAEKEKNAYQLTEKDKEIQRLRDQLKARYSTTTLLEQLEETTREGERREQVLKALSEEKDVLKQQLSAATSRIAELESKTNTLRLSQTVAPNCFNSSINNIHEMEIQLKDALEKNQQWLVYDQQREVYVKGLLAKIFELEKKTETAAHSLPQQTKKPESEGYLQEEKQKCYNDLLASAKKDLEVERQTITQLSFELSEFRRKYEETQKEVHNLNQLLYSQRRADVQHLEDDRHKTEKIQKLREENDIARGKLEEEKKRSEELLSQVQFLYTSLLKQQEEQTRVALLEQQMQACTLDFENEKLDRQHVQHQLHVILKELRKARNQITQLESLKQLHEFAITEPLVTFQGETENREKVAASPKSPTAALNESLVECPKCNIQYPATEHRDLLVHVEYCSK
B7: Homeobox protein PKNOX1 (Homo sapiens), P55347 (parent)
chain: MMATQTLSIDSYQDGQQMQVVTELKTEQDPNCSEPDAEGVSPPPVESQTPMDVDKQAIYRHPLFPLLALLFEKCEQSTQGSEGTTSASFDVDIENFVRKQEKEGKPFFCEDPETDNLMVKAIQVLRIHLLELEKVNELCKDFCSRYIACLKTKMNSETLLSGEPGSPYSPVQSQQIQSAITGTISPQGIVVPASALQQGNVAMATVAGGTVYQPVTVVTPQGQVVTQTLSPGTIRIQNSQLQLQLNQDLSILHQDDGSSKNKRGVLPKHATNVMRSWLFQHIGHPYPTEDEKKQIAAQTNLTLLQVNNWFINARRRILQPMLDSSCSETPKTKKKTAQNRPVQRFWPDSIASGVAQPPPSELTMSEGAVVTITTPVNMNVDSLQSLSSDGATLAVQQVMMAGQSEDESVDSTEEDAGALAPAHISGLVLENSDSLQ
B8: E3 ubiquitin-protein ligase CCNB1IP1 (Homo sapiens), Q9NPC3 (parent)
chain: MSLCEDMLLCNYRKCRIKLSGYAWVTACSHIFCDQHGSGEFSRSPAICPACNSTLSGKLDIVRTELSPSEEYKAMVLAGLRPEIVLDISSRALAFWTYQVHQERLYQEYNFSKAEGHLKQMEKIYTQQIQSKDVELTSMKGEVTSMKKVLEEYKKKFSDISEKLMERNRQYQKLQGLYDSLRLRNITIANHEGTLEPSMIAQSGVLGFPLGNNSKFPLDNTPVRNRGDGDGDFQFRPFFAGSPTAPEPSNSFFSFVSPSRELEQQQVSSRAFKVKRI

Variants of B1 are the subject of the first assay. Conditions: with fer3l_human FERD3L.
In the case of R23H, the “effect of a mutation on the interaction” value is “with no effect”.

The variants in a further assay derive from B2. Conditions: with tpp2_human TPP2, P29144.
In the case of R556G, the “effect of a mutation on the interaction” value is given as “with no effect”.
On the same count and under the same terms, in the case of R483Q it was “disrupting interaction strength”; in that of L715S, “with no effect”; in that of I646T, “disrupting interaction strength”.
Same read-out and setting: in the case of S703F it was “with no effect”.

The next assay covers variants of B2. Conditions: with actb_human ACTB.
On to R556G, for which the “effect of a mutation on the interaction” value is “with no effect”.
Take R483Q: the “effect of a mutation on the interaction” value is given as “disrupting interaction strength”.
Still for that read-out and setting: in the case of L715S it was “with no effect”.
Same read-out and setting: the result for I646T reads “disrupting interaction strength”; that for S703F, “with no effect”.

The variants in the next assay derive from B2. Conditions: with actg_human ACTG1, P63261.
Consider R556G, for which the “effect of a mutation on the interaction” value is “with no effect”.
Still for that read-out and setting: in the case of R483Q it was “disrupting interaction strength”; in that of L715S, “with no effect”; in that of I646T, “disrupting interaction strength”.
Regarding S703F, the “effect of a mutation on the interaction” value is given as “with no effect”.

In the next assay the parent is B2. Conditions: with tnip1_human TNIP1, Q15025.
Chain of tnip1_human TNIP1, Q15025 (Q15025 whole entry): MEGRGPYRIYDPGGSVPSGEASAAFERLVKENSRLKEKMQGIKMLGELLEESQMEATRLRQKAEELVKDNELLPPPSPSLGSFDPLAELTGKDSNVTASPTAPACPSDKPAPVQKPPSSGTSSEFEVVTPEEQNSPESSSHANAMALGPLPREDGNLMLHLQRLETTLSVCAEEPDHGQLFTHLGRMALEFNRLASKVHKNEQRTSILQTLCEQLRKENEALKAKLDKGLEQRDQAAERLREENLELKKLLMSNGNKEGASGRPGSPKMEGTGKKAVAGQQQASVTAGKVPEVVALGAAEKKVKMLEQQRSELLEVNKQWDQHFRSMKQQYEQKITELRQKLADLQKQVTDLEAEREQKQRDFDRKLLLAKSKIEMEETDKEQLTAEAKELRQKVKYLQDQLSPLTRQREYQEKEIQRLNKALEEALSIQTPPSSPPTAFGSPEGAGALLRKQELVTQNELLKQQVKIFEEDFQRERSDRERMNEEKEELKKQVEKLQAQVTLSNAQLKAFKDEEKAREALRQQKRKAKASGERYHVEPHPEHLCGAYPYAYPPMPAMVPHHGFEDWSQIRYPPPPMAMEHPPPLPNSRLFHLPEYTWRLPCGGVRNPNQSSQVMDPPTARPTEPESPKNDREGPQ
For the variant R483Q, the “effect of a mutation on the interaction” value was “with no effect”.
The same measure, in the same setting: the result for L715S reads “with no effect”; that for I646T, “disrupting interaction strength”.
The same measure, in the same setting: in the case of S703F it was “with no effect”.

A further assay covers variants of B2. Conditions: with fund1_human FUNDC1, Q8IVP5.
Chain of fund1_human FUNDC1, Q8IVP5 (Q8IVP5 whole entry): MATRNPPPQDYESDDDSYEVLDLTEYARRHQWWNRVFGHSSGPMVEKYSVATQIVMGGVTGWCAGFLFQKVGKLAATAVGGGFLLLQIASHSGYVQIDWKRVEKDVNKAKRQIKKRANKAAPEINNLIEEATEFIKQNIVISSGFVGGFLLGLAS
For Q685K, the “effect of a mutation on the interaction” value is on record as “disrupting interaction strength”.

In a further assay the parent is B2. Conditions: with tri41_human TRIM41, Q8WV44.
For Q685K, the “effect of a mutation on the interaction” value is reported as “with no effect”.

The variants in the next assay derive from B2. Conditions: with CCDC102B.
With Q685K, the “effect of a mutation on the interaction” value was “with no effect”.

In another assay the parent is B3. To be noted: with stp1_human TNP1, P09430.
Regarding G225R, the “effect of a mutation on the interaction” value is recorded as “disrupting interaction strength”.
Same read-out and setting: in the case of V182M it was “disrupting interaction strength”.
Turning to G242R, the “effect of a mutation on the interaction” value is given as “disrupting interaction strength”.

The variants in a further assay derive from B4. Conditions: with kcc2d_human CAMK2D.
A162V: the “effect of a mutation on the interaction” value is on record as “with no effect”.

Variants of B4 are the subject of another assay. To be noted: with FAM117B.
Regarding A162V, the “effect of a mutation on the interaction” value was “with no effect”.

Variants of B4 are the subject of another assay. To be noted: with aakb2_human PRKAB2, O43741.
Chain of aakb2_human PRKAB2, O43741 (O43741 whole entry): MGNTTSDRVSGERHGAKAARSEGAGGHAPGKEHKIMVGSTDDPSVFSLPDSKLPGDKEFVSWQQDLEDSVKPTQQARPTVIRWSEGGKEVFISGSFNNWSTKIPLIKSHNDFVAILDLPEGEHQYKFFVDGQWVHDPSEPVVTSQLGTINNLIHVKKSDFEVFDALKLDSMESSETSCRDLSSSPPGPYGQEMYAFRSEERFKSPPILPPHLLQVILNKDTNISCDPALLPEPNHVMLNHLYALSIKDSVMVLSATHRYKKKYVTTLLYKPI
Regarding A162V, the “effect of a mutation on the interaction” value is given as “with no effect”.

In the next assay the parent is B4. Conditions: with pf21a_human PHF21A.
As to A162V, the “effect of a mutation on the interaction” value is “with no effect”.

The next assay covers variants of B5. To be noted: with smoc1_human SMOC1, Q9H4F8.
As for R74Q, the “effect of a mutation on the interaction” value is “with no effect”.
For the variant A115T, the “effect of a mutation on the interaction” value is given as “with no effect”.

A further assay covers variants of B6. To be noted: with dpolm_human POLM.
With C236R, the “effect of a mutation on the interaction” value is recorded as “with no effect”.
Still for that read-out and setting: the result for R348K reads “with no effect”.
A244P: the “effect of a mutation on the interaction” value is reported as “with no effect”.
On the same count and under the same terms, the result for H57Q reads “with no effect”.

The variants in the next assay derive from B6. Conditions: with tead4_human TEAD4, Q15561.
Chain of tead4_human TEAD4, Q15561 (Q15561 whole entry): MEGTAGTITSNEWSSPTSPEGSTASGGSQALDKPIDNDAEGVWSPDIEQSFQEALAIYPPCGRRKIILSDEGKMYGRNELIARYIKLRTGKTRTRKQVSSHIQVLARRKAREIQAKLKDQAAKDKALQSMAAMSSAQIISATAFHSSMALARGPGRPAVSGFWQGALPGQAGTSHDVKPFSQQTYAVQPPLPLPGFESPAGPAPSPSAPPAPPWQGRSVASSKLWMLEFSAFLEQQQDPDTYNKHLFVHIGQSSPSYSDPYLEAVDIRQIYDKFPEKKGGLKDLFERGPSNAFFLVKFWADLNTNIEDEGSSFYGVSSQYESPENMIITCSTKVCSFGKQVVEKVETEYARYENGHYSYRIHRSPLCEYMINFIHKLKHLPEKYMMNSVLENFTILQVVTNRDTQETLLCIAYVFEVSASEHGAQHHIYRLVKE
Turning to C236R, the “effect of a mutation on the interaction” value is listed as “with no effect”.
The same measure, in the same setting: the result for R348K reads “with no effect”; that for A244P, “with no effect”; that for H57Q, “with no effect”.

Variants of B6 are the subject of a further assay. To be noted: with anx11_human ANXA11, P50995.
Chain of anx11_human ANXA11, P50995 (P50995 whole entry): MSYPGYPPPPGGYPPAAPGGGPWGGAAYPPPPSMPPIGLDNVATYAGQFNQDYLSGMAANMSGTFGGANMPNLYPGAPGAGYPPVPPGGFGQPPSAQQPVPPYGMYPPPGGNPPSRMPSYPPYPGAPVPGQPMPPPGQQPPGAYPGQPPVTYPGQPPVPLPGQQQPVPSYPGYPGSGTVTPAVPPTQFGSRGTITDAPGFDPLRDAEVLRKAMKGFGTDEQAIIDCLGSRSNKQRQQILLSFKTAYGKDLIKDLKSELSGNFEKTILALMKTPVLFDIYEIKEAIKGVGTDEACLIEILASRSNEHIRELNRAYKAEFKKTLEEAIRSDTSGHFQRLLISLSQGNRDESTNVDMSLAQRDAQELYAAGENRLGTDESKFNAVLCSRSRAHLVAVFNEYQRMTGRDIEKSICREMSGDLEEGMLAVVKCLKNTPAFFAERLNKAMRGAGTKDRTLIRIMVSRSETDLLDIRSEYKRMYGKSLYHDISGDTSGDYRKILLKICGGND
On to C236R, for which the “effect of a mutation on the interaction” value is “with no effect”.
On the same count and under the same terms, in the case of R348K it was “with no effect”; in that of A244P, “disrupting interaction strength”.
The same measure, in the same setting: the result for H57Q reads “with no effect”.

Variants of B6 are the subject of a further assay. Conditions: with pdc6i_human PDCD6IP.
Take C236R: the “effect of a mutation on the interaction” value is given as “with no effect”.
Still for that read-out and setting: the result for R348K reads “with no effect”.
Take L59F: the “effect of a mutation on the interaction” value was “with no effect”.
As for A244P, the “effect of a mutation on the interaction” value is recorded as “with no effect”.
Same read-out and setting: the result for E321K reads “with no effect”.
On the same count and under the same terms, the result for H57Q reads “with no effect”; that for R138Q, “with no effect”.

The variants in another assay derive from B7. To be noted: with vp37c_human VPS37C.
For the variant E103D, the “effect of a mutation on the interaction” value is listed as “with no effect”.
Still for that read-out and setting: in the case of V265I it was “with no effect”.

Variants of B7 are the subject of a further assay. Conditions: with vp37c_human VPS37C. The source holds these as a separate data set.
On to V265I, for which the “effect of a mutation on the interaction” value is on record as “with no effect”.

The variants in a further assay derive from B8. To be noted: with aapk2_human PRKAA2, P54646.
Chain of aapk2_human PRKAA2, P54646 (P54646 whole entry, looked up): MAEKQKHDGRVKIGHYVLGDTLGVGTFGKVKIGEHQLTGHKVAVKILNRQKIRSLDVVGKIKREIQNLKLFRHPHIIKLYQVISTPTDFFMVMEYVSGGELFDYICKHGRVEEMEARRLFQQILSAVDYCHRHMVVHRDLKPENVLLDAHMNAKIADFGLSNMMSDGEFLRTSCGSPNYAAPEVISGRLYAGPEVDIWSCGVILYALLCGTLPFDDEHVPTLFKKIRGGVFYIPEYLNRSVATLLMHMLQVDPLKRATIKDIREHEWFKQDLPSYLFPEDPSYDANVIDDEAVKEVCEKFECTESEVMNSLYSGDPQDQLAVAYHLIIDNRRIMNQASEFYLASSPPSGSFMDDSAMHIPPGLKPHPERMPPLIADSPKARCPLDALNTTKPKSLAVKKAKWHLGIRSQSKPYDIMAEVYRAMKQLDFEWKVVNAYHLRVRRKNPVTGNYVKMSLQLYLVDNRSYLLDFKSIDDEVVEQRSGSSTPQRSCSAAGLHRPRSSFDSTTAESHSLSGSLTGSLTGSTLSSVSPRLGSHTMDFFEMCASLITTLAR
Turning to Y106H, the “effect of a mutation on the interaction” value is “with no effect”.

Variants of B8 are the subject of a further assay. Conditions: with KRT15, P19012.
Chain of KRT15, P19012 (P19012 whole entry): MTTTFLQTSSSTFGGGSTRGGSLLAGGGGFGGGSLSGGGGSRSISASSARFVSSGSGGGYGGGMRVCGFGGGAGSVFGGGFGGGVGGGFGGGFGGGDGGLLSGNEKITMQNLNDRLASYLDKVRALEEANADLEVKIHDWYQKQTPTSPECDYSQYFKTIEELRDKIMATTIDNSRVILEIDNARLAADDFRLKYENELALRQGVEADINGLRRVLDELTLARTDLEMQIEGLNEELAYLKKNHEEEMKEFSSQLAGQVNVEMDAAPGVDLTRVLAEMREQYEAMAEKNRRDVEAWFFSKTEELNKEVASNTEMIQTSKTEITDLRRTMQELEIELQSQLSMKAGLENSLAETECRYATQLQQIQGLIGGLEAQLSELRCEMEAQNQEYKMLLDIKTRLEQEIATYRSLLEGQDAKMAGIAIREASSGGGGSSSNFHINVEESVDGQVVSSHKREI
Y106H: the “effect of a mutation on the interaction” value is on record as “disrupting interaction strength”.

Another assay covers variants of B8. To be noted: with keap1_human KEAP1, Q14145.
Chain of keap1_human KEAP1, Q14145 (Q14145 whole entry): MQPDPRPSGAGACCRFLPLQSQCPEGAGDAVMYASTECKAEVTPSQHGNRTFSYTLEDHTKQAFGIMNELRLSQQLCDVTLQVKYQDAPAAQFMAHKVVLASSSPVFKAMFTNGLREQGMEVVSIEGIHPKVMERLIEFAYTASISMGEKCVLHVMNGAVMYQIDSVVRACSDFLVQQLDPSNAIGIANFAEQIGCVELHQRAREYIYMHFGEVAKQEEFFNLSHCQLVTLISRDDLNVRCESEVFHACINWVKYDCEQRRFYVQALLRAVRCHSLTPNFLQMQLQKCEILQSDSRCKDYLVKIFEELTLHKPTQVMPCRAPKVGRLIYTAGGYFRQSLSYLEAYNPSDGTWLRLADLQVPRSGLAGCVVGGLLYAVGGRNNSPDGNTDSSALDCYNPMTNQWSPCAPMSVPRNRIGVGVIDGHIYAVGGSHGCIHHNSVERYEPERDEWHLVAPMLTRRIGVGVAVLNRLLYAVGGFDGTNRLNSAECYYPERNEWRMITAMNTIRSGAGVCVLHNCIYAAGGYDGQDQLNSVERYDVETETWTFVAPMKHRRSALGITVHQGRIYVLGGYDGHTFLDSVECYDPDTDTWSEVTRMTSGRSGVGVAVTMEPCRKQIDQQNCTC
As to Y106H, the “effect of a mutation on the interaction” value was “with no effect”.
